In US20240076371A1, “COMPOSITIONS AND METHODS FOR TREATING OSTEOARTHRITIS, RHEUMATOID ARTHRITIS, AND JOINT AND TENDON DISORDERS” (BOARD OF REGENTS, THE UNIVERSITY OF TEXAS SYSTEM, priority 2021, published 2024):

Assays:
[1] = target: T1, Cx43 hemichannels in human synovial fibroblast SW982 cells (Homo sapiens, UniProt P17302); test: EtBr dye uptake assay in IL1β-treated SW982 cells; type: cell-based
T1 construct: endogenous in cells; host or cells: SW982 (human synovial fibroblast), IL1β-treated
Procedure: (§1) Dye uptake assay. Cells were incubated with a mixture of 0.1 mM ethidium bromide (EtBr, MW 394 Da) and 1 mg/ml FITC-dextran (MW 10 kDa) for 5 minutes. EtBr was used as a tracer to detect hemichannel activity, and FITC-dextran, which is too large to pass through hemichannels but is taken up by dying cells, was used as a negative control. Cells were then rinsed five times with PBS, followed by fixing with 2% paraformaldehyde for 10 minutes. At least six microphotographs of fluorescence fields were captured under a 20× fluorescent microscope (Keyence, BZ-X710, Osaka, Japan). For each image, the average intensity of EtBr fluorescence was measured and quantified from at least 30 random cells using ImageJ software (NIH, Bethesda, USA). […]
(§2) Anti-Cx43 hemichannel antibody (M1 antibody) blocked Cx43 hemichannel opening and inflammatory gene expression in RAW264.7 and SW982 cells. […] The activity of Cx43 hemichannels was determined using EtBr dye uptake assay. […] Next, MMP3/13, Cyclooxygenase 2 (COX2), ADAM metallopeptidase with thrombospondin type 1 motif 4 (Adamts4), and IL6 gene expression was determined with or without Cx43E2 antibody after LPS treatment of RAW264.7 cells (FIG. 18). […] In addition, MMP3/13, COX2, Adamts4/5, and Nitric Oxide Synthase 2 (NOS2) gene expression was evaluated in IL1β-treated SW982 cells (FIG. 19).

[2] = target: T2, Cx43 hemichannels in mouse macrophage RAW264.7 cells (Mus musculus, UniProt P23242); test: EtBr dye uptake assay in LPS-treated RAW264.7 cells; type: cell-based
T2 construct: endogenous in cells; host or cells: RAW264.7 (mouse macrophage), LPS-treated
Procedure: as §1, §2

[3] = target: T3, Connexin 43 (Cx43) hemichannel, mouse (mouse, UniProt P23242 2-382); test: in vivo binding after i.p. injection; frozen knee sections stained with Alexa Fluor 594 anti-human IgG
T3 construct: whole, on cells; also called Cx43 HCs
Procedure: M1 antibody binds to synovium and inhibits hemichannel opening in OA. Due to the dense nature of cartilage and large size of antibodies, a widely held perception is that antibodies are unable to penetrate the cartilage matrix. To determine the antibody binding pattern in the knee joint region, M1 antibody (25 mg/kg) with human IgG epitope or saline was intraperitoneally (i.p.) injected at 30 mins after DMM surgery. As shown in the diagram (FIG. 8A), mice were euthanized and perfused before isolation of hindlimbs at one or two weeks after injection. Frozen tissue sections were prepared and immuno-labeled with Alexa Fluor 594-conjugated anti-human IgG secondary antibody. The signal was detectable at both one and two weeks after antibody administration, with the antibody binding site primarily localized in the synovium region (FIG. 8B). The synovium of joints comprises macrophage-like type A cells, which are responsible for phagocytosing synovial fluid, and fibroblast-like type B cells, which produce hyaluronic acid and mucin to nourish and mechanically protect, respectively, the underlying articular cartilage (Donahue H J, et al. Nature reviews Rheumatology. 2017; 14(1):42-51). Then the sections were immuno-labeled with the macrophage marker CD68, and the M1 antibody was co-localized with CD68 in the synovium region (FIG. 9). […]

[4] = tested on: LPS-induced inflammatory gene expression in RAW264.7 cells; test: qRT-PCR of LPS-induced inflammatory gene expression in RAW264.7 cells; type: cell-based, mouse; conditions: pre-incubated 30 min, 0.1 μg/ml LPS for 4 hrs
Procedure: Mouse macrophage RAW264.7 cells were pre-incubated with or without the Cx43E2 antibody for 30 min followed by incubation with 0.1 μg/ml LPS for 4 hrs. RNA extracts were prepared and subjected to qRT-PCR analysis for COX2, Adamts4, MMP3/13 and IL6 mRNA expression. *P<0.05, **P<0.01.
(§3) RNA isolation and real-time PCR. Total RNA was isolated from RAW264.7 and SW982 cells using TRI Reagent (Molecular Research Center, Cincinnati, USA) according to the manufacturer's instructions. After RNA quantification by Nanodrop 2000, cDNA was synthesized from 1 μg of total RNA using the high-capacity RNA-to-cDNA kit (Thermo Fisher Scientific, Waltham, USA). […]
as §2

[5] = tested on: IL1β-induced inflammatory gene expression in SW982 cells; test: qRT-PCR of IL1β-induced inflammatory gene expression in SW982 cells; type: cell-based, human; conditions: pre-incubated 30 min, 1 ng/ml IL1β for 14 hrs
Procedure: Human synovial fibroblast SW982 cells were pre-incubated with or without the Cx43E2 antibody for 30 min followed by incubation with 1 ng/ml IL1β for 14 hrs. RNA extracts were prepared and subjected to qRT-PCR analysis for COX2, Adamts4/5, MMP3/13 and NOS2 mRNA expression. *P<0.05, **P<0.01.
as §3, §2

T1 sequence (P17302 whole entry): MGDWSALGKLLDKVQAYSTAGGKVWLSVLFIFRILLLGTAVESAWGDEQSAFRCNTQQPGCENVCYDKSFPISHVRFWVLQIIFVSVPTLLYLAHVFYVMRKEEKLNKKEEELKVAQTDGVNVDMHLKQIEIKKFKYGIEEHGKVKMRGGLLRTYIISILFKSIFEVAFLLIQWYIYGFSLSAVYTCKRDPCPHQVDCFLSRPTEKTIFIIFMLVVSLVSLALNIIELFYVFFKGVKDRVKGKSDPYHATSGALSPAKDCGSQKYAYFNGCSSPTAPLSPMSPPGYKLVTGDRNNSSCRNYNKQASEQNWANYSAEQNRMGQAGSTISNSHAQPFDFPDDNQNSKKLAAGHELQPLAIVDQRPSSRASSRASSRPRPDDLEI
T2 sequence (P23242 whole entry): as the sequence (P17302 whole entry) above, with D124E, I164V, K243R, S251T, A253P, A257S, Q263P, N341S, S344A, L347V counted along it
T3 sequence (P23242 2-382): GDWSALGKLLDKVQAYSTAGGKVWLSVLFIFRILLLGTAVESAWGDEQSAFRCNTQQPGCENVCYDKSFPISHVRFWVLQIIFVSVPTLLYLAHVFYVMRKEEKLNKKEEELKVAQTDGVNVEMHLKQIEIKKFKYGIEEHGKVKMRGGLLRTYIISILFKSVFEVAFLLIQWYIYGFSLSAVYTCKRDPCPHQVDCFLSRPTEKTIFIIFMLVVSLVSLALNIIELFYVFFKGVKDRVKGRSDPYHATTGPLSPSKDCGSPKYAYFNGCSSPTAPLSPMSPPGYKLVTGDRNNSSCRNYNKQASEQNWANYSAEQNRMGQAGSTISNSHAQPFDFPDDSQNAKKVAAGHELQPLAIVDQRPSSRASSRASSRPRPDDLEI

CC1(C)[C@@H](OC(=O)CCC(=O)O)CC[C@]2(C)[C@H]3C(=O)C=C4[C@@H]5C[C@@](C)(C(=O)O)CC[C@]5(C)CC[C@@]4(C)[C@]3(C)CC[C@@H]12 [carbenoxolone, reference compound]
IL1β-induced increase of Cx43 hemichannel opening (EtBr dye uptake) ([1]; CBX 100 μM): abolished
LPS-induced increase of Cx43 hemichannel opening (EtBr dye uptake) ([2]; CBX 100 μM): abolished

B1: M1 antibody (anti-Cx43 hemichannel blocking antibody) (antibody, V domains shown)
VH: EVQLQQPGAELVKPGASVKLSCKASGYTFTSYYMYWVKQRPGQGLEWIGGINPSNGGTNFNEKFKNKATLTVDKSSSTAYMQLSSLTSEDSAVYYCTREGNPYYTMNYWGQGTSVTVSS
VL: DIVMTQSPSSLSVSAGEKVTMSCKSSQSLLNSGNQKTYLAWYQQKPGQPPKLLIYGASTRESGVPDRFTGSGSGTDFTLTISSVQAEDLAVYYCQNDHSYPFTFGSGTKLEIK
notes: also called HmAb1; anti-Cx43 hemichannel antibody
binding result [3]: binds

B2: Cx43E2 blocking antibody: Cx43 hemichannel blocking antibody used in RAW264.7 and SW982 cells; headings and legends call it anti-Cx43 hemichannel antibody (M1 antibody) (antibody, V domains shown)
VH: EVQLQQPGAELVKPGASVKLSCKASGYTFTSYYMYWVKQRPGQGLEWIGGINPSNGGTNFNEKFKNKATLTVDKSSSTAYMQLSSLTSEDSAVYYCTREGNPYYTMNYWGQGTSVTVSS
VL: DIVMTQSPSSLSVSAGEKVTMSCKSSQSLLNSGNQKTYLAWYQQKPGQPPKLLIYGASTRESGVPDRFTGSGSGTDFTLTISSVQAEDLAVYYCQNDHSYPFTFGSGTKLEIK
LPS-induced up-regulation of MMP3/13, COX2, Adamts4 and IL6 gene expression [4]: markedly decreased
IL1β-induced increase of Cx43 hemichannel opening (EtBr dye uptake) ([1]; antibody 2 μg/ml): abolished
MMP3/13, COX2, Adamts4/5 and NOS2 gene expression after IL1β treatment [5]: significantly reduced
LPS-induced increase of Cx43 hemichannel opening (EtBr dye uptake) ([2]; antibody 2 μg/ml): abolished
